Laboratory results from patent US20130345294.

Molecular target: GAVP(N56K+C71V) N56K,C71V (VIVID numbering) (artificial) (UniProt Q04206)
Assay: cell_activity

Sequence of UniProt Q04206 (Q04206 whole entry, stated change not applied): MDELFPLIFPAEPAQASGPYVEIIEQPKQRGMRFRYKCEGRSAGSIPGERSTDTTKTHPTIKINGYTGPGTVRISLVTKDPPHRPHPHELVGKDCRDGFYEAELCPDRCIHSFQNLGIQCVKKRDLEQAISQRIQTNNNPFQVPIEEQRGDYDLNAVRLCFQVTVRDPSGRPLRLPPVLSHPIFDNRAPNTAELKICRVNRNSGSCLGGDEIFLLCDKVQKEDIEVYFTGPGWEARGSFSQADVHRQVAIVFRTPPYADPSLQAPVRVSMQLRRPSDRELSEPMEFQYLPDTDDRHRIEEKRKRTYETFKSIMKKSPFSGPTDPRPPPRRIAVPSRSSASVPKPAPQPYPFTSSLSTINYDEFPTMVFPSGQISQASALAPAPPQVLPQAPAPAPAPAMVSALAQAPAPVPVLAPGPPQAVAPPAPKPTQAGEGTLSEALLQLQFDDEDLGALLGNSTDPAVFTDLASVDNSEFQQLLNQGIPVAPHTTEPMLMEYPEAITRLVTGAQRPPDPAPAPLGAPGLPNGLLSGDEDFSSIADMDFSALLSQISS

| Substance | activity (HEK293 light/dark induction, also active in NIH3T3 and COS-7) [fold] | activity (HEK293, Gluc after 12 h light, 30-fold after 3 h) [fold] |
| --- | --- | --- |
| 5xUASG-TATA-Fluc | 200 | – |
| TCTAGACGGAGTACTGTCCTCCGAGCGGAGTACTGTCCTCCGACTCGAGCGGAGTACTGTCCTCCGATCGGAGTACTGTCCTCCGCGAATTCCGGAGTACTGTCCTCCGAAGACGCTAGCGGGGGGCTATAAAAGGGGGTGGGGGCGTTCGTCCTCACTCTAGATCTGCGATCTAAGTAAGCTTGGCCACCATGGGAGTCAAAGTTCTGTTTGCCCTGATCTGCATCGCTGTGGCCGAGGCCAAGCCCACCGAGAACAACGAAGACTTCAACATCGTGGCCGTGGCCAGCAACTTCGCGACCACGGATCTCGATGCTGACCGCGGGAAGTTGCCCGGCAAGAAGCTGCCGCTGGAGGTGCTCAAAGAGATGGAAGCCAATGCCCGGAAAGCTGGCTGCACCAGGGGCTGTCTGATCTGCCTGTCCCACATCAAGTGCACGCCCAAGATGAAGAAGTTCATCCCAGGACGCTGCCACACCTACGAAGGCGACAAAGAGTCCGCACAGGGCGGCATAGGCGAGGCGATCGTCGACATTCCTGAGATTCCTGGGTTCAAGGACTTGGAGCCCATGGAGCAGTTCATCGCACAGGTCGATCTGTGTGTGGACTGCACAACTGGCTGCCTCAAAGGGCTTGCCAACGTGCAGTGTTCTGACCTGCTCAAGAAGTGGCTGCCGCAACGCTGTGCGACCTTTGCCAGCAAGATCCAGGGCCAGGTGGACAAGATCAAGGGGGCCGGTGGTGACTAA (double strand) [5xUASG-TATA-Gluc] | – | 100 |
